Reference: publication PMC12612594, “Nuclear Magnetic Resonance‐based fragment screen of the E3 ligase Fem‐1 homolog B” (Protein Science : A Publication of the Protein Society, 2025)

Legend:
[1] = thermal shift assay of FEM1B constructs; assay type: physicochemical; details: average of three replicates
Procedure: The substrate binding domain of FEM1B (residues 1–356, ~42 kDa molecular weight) was prepared for NMR‐based screening. However, this construct (FEM1B WT) was prone to aggregation and was not suitable for the NMR experiments. […] To reduce the potential for aggregation, we prepared several mutants of FEM1B constructs and evaluated their stability using a thermal shift assay (Table 1).

[2] = stability of construct at room temperature; assay type: physicochemical
Text: Two FEM1B constructs (FEM1B‐1 and FEM1B‐2) were designed to remove free cysteines on the exterior of the protein to prevent disulfide bond formation and prevent aggregation. FEM1B‐3 to FEM1B‐11 were designed to modify hydrophobic residues on the protein surface and reduce the predicted pI away from the pH needed for the experiment. To accomplish this, residues such as Leu, Ile, Val, or Arg were mutated to negatively charged residues (Asp or Glu) to shift the pI to be more acidic. Hydrophobic residues on the surface of the protein were chosen for mutation to also reduce solvent‐exposed hydrophobic patches that may be contributing to the aggregation (Figure S1, Supporting Information).

B1: FEM1B‐11: FEM1B construct, mutations L4E, L18E, A21E, L25S, Y84A, I270N, L281E, R321D (protein, UniProt Q9UK73 1-627, looked up, variant L4E L18E A21E L25S Y84A I270N L281E R321D)
Protein fem-1 homolog B: MEGEAGYVYKAASEGKVETLEALLSNRSESDIRYLLGYVSQQGGQRSTPLIIAARNGHAKVVRLLLEHYRVQTQQTGTVRFDGAVIDGATALWCAAGAGHFEVVKLLVSHGANVNHTTVTNSTPLRAACFDGRLDIVKYLVENNANISIANKYDNTCLMIAAYKGHTDVVRYLLEQRADPNAKAHCGATALHFAAEAGHIDIVKELIKWRAAIVVNGHGMTPLKVAAESCKADVVELLLSHADCDRRSRIEALELLGASFANDRENYDINKTYHYLYLAMEERFQDGDNILEKEVLPPIHAYGNRTECRNPQELESIRQDDDALHMEGLIVRERILGADNIDVSHPIIYRGAVYADNMEFEQCIKLWLHALHLRQKGNRNTHKDLLRFAQVFSQMIHLNETVKAPDIECVLRCSVLEIEQSMNRVKNISDADVHNAMDNYECNLYTFLYLVCISTKTQCSEEDQCKINKQIYNLIHLDPRTREGFTLLHLAVNSNTPVDDFHTNDVCSFPNALVTKLLLDCGAEVNAVDNEGNSALHIIVQYNRPISDFLTLHSIIISLVEAGAHTDMTNKQNKTPLDKSTTGVSEILLKTQMKMSLKCLAARAVRANDINYQDQIPRTLEEFVGFH
Tm ± SD [1]: 48.6 ± 1.7 °C | stable at room temperature [2]: over 24 h
